The target of the assay is ECFP-FKBP38 fusion protein (pECFP-C1-FKBP38), Q14318. In words: FRET or BRET; live-cell confocal FRET of ECFP (donor) and EYFP (acceptor) fusions in HEK293 cells transfected 48 h; acceptor/donor plasmid ratios 1:1 to 5:1; FRET efficiency against A/D ratio fitted to a 1:1 binding model. The conditions noted are these: remark: other sources report otherwise.
Sequence of ECFP-FKBP38 fusion protein (pECFP-C1-FKBP38), Q14318 (Q14318 whole entry, the tested form may be a part): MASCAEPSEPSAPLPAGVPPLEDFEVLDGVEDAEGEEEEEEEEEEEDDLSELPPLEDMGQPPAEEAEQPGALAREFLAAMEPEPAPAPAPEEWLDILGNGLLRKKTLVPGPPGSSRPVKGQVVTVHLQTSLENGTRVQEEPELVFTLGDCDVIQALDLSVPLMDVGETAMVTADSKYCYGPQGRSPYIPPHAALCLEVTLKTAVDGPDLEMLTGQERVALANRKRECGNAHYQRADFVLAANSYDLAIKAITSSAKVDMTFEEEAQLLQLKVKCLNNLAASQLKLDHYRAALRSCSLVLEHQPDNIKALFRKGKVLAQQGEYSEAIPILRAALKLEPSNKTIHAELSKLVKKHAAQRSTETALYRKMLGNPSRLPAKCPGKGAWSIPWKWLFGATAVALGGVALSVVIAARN

B1: PHD2-EYFP (PHD2 coding sequence in pEYFP-N1), Q9GZT9 1-426 (enzyme)
chain: MANDSGGPGGPSPSERDRQYCELCGKMENLLRCSRCRSSFYCCKEHQRQDWKKHKLVCQGSEGALGHGVGPHQHSGPAPPAAVPPPRAGAREPRKAAARRDNASGDAAKGKVKAKPPADPAAAASPCRAAAGGQGSAVAAEAEPGKEEPPARSSLFQEKANLYPPSNTPGDALSPGGGLRPNGQTKPLPALKLALEYIVPCMNKHGICVVDDFLGKETGQQIGDEVRALHDTGKFTDGQLVSQKSDSSKDIRGDKITWIEGKEPGCETIGLLMSSMDDLIRHCNGKLGSYKINGRTKAMVACYPGNGTGYVRHVDNPNGDGRCVTCIYYLNKDWDAKVSGGILRIFPEGKAQFADIEPKFDRLLFFWSDRRNPHEVQPAYATRYAITVWYFDADERARAKVKYLTGEKGVRVELNKPSDSVGKDVF
With B1, the maximum FRET efficiency is greater than 20%.

(Values after article PMC3084761.)
